Reference: patent US20200115416A1 (REGENTS OF THE UNIVERSITY OF MINNESOTA, published 2020)
Like-named read-outs stand apart in the source and are kept apart here. Each block holds one binder with its values, some of them ahead of it. Square brackets hold non-standard residues; d marks the D form.

Tests used:
[1] = biological target: T1, mouse melanocortin-5 receptor (mouse, UniProt P41149 1-325); assay: cell-based or functional assay
[2] = biological target: T2, mouse melanocortin-1 receptor (mouse, UniProt Q01727 1-315); assay: cell-based or functional assay
[3] = biological target: T3, mouse melanocortin-4 receptor (mouse, UniProt P56450 1-332); assay: cell-based or functional assay
[4] = biological target: T4, mouse melanocortin-3 receptor (mouse, UniProt P33033 1-323); assay: cell-based or functional assay
[5] = biological target: T1, mouse melanocortin-5 receptor; assay: cell-based or functional assay; remark: listed apart in the source
[6] = biological target: T2, mouse melanocortin-1 receptor; assay: cell-based or functional assay; remark: listed apart in the source
[7] = biological target: T3, mouse melanocortin-4 receptor; assay: cell-based or functional assay; remark: listed apart in the source
[8] = biological target: T4, mouse melanocortin-3 receptor; assay: cell-based or functional assay; remark: listed apart in the source
[9] = biological target: T5, human melanocortin-4 receptor (human, UniProt P32245 1-332); assay: cell-based or functional assay
[10] = biological target: T4, mouse melanocortin-3 receptor; assay: cell-based or functional assay; remark: listed apart in the source
[11] = biological target: T1, mouse melanocortin-5 receptor; assay: cell-based or functional assay; remark: listed apart in the source
[12] = biological target: T2, mouse melanocortin-1 receptor; assay: cell-based or functional assay; remark: listed apart in the source
[13] = biological target: T1, mouse melanocortin-5 receptor; assay: cell-based or functional assay; remark: listed apart in the source
[14] = biological target: T2, mouse melanocortin-1 receptor; assay: cell-based or functional assay; remark: listed apart in the source
[15] = biological target: T3, mouse melanocortin-4 receptor; assay: cell-based or functional assay; remark: listed apart in the source
[16] = biological target: T5, human melanocortin-4 receptor; assay: displacement of 125I-AGRP, HEK293 cells expressing hMC4R
Protocol: (§1) Competitive binding affinity experiments were performed on HEK-293 cells stably expressing the wildtype hMC4R. […] The assay media was carefully aspirated and cells were washed once with assay buffer. Cell were lysed with 500 μL 0.1 M NaOH and 500 μL 1% Triton X-100 for a minimum of 10 min. […] All experiments were performed with duplicate data points and in at least two independent experimental replicates. […] Concentration-response curves and IC₅₀ values were generated and analyzed by the PRISM program (version 4.0. GraphPad Inc.) by a nonlinear regression method. The standard error of the mean (SEM) was derived from the IC₅₀ values from at least two independent experimental replicates.

[17] = biological target: T5, human melanocortin-4 receptor; assay: displacement of 125I-NDP-MSH, HEK293 cells expressing hMC4R
Protocol: as §1

T3 sequence (P56450 whole entry): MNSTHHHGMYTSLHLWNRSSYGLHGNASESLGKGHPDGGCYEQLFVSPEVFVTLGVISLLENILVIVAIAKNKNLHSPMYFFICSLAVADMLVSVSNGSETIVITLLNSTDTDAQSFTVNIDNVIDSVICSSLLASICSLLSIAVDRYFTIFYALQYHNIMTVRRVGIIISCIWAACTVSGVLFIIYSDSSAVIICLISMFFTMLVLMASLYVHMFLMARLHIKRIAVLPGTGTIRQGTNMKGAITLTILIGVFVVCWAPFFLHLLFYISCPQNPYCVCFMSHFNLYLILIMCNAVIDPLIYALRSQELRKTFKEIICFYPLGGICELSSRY
T5 sequence (P32245 whole entry): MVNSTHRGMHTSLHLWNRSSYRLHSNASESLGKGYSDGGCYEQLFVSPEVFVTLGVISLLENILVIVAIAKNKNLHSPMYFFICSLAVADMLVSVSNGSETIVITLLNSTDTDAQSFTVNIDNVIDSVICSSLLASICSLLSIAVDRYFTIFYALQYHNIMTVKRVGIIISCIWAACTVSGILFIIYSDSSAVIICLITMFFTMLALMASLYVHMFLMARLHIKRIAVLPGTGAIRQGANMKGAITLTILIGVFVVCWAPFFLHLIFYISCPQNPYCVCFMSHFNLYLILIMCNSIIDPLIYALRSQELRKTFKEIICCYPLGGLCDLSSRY
T2 sequence (Q01727 whole entry): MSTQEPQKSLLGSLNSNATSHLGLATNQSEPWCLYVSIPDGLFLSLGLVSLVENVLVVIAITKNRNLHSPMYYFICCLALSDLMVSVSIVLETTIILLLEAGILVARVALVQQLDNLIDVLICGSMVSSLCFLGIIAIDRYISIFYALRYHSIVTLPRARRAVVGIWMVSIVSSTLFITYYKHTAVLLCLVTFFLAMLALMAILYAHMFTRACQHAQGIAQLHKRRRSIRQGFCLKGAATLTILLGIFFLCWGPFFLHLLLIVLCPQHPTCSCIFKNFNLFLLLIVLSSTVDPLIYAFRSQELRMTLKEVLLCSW
T1 sequence (P41149 whole entry): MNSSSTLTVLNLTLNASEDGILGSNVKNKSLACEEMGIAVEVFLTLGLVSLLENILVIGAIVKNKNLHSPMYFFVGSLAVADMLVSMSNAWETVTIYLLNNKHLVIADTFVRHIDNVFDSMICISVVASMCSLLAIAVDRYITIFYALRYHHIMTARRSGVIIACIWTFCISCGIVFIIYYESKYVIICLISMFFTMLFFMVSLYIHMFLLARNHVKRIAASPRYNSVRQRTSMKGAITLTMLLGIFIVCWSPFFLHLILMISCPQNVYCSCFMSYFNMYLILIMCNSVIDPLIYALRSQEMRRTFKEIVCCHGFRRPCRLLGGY
T4 sequence (P33033 whole entry): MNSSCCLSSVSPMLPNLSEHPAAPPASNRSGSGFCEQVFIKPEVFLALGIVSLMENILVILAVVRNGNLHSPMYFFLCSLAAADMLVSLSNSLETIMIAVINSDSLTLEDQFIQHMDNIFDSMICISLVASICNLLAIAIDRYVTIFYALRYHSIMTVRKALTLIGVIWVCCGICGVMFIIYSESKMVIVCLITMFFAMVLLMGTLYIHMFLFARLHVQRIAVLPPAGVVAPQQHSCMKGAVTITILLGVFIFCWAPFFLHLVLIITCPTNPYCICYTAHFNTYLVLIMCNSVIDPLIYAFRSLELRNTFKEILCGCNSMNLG

Binder: PRFFXAFP (head-to-tail cyclic; DPhe at 3; Dap at 5; DPro at 8) [c[Pro-Arg-DPhe-Phe-Dap-Ala-Phe-DPro]]
- % maximal NDP-MSH response at 100 µM (cAMP AlphaScreen) [3]: 20%
- agonist EC50 (cAMP AlphaScreen) [4]: > 100000 nM
- antagonist pA2 (Schild, agonist NDP-MSH) [4]: 5.92
- agonist EC50 (cAMP AlphaScreen) [5]: > 100000 nM
- agonist EC50 (cAMP AlphaScreen) [6]: 230 nM

B1: c[Pro-Arg-Phe-Phe-Asn-Ala-Asp-DPro] (peptide)
peptide: cyclo(PRFFNAD[dP])
SMILES: C[C@@H]1NC(=O)[C@H](CC(N)=O)NC(=O)[C@H](Cc2ccccc2)NC(=O)[C@H](Cc2ccccc2)NC(=O)[C@H](CCCNC(=N)N)NC(=O)[C@@H]2CCCN2C(=O)[C@H]2CCCN2C(=O)[C@H](CC(=O)O)NC1=O
- antagonist pA2 (Schild, agonist NDP-MSH) [7]: < 5.5
- antagonist pA2 (Schild, agonist NDP-MSH) [8]: < 5.5
- inverse agonist, % change from basal cAMP at 100 µM [1]: -25%
- % activation at 100 µM (cAMP AlphaScreen) [2]: 40%

Binder: PRFFXAFP (head-to-tail cyclic; DArg at 2; DPhe at 4; Dap at 5; DPro at 8) [c[Pro-DArg-Phe-DPhe-Dap-Ala-Phe-DPro]]
- agonist EC50 (cAMP AlphaScreen) [4]: > 100000 nM
- antagonist pA2 (Schild, agonist NDP-MSH) [4]: 5.7
- inverse agonist, % change from basal cAMP at 100 µM [5]: -20%
- agonist EC50 (cAMP AlphaScreen) [6]: 450 nM
- partial agonist efficacy, % of NDP-MSH [6]: 70%

Binder: PRFFXAFP (head-to-tail cyclic; DPhe at 4; Dap at 5; DPro at 8) [c[Pro-Arg-Phe-DPhe-Dap-Ala-Phe-DPro]]
- agonist EC50 (cAMP AlphaScreen) [4]: > 100000 nM
- antagonist pA2 (Schild, agonist NDP-MSH) [4]: < 5.5
- agonist EC50 (cAMP AlphaScreen) [5]: > 100000 nM
- agonist EC50 (cAMP AlphaScreen) [6]: 800 nM
- partial agonist efficacy, % of NDP-MSH [6]: 75%

Binder: PRFFXAFP (head-to-tail cyclic; Dap at 5; DPro at 8) [c[Pro-Arg-Phe-Phe-Dap-Ala-Phe-DPro]]
- inverse agonist, % decrease from basal signal [9]: -50%
- agonist EC50 (cAMP AlphaScreen) [10]: > 100000 nM
- antagonist pA2 (Schild, agonist NDP-MSH) [10]: 6.52
- inverse agonist apparent potency [11]: 60 nM
- inverse agonist, % decrease from basal cAMP [11]: -15%
- % maximal NDP-MSH response at 100 µM (cAMP AlphaScreen) [12]: 30%
- EC50 (cAMP AlphaScreen, inverse agonist) [13]: > 100000 nM
- agonist EC50 (cAMP AlphaScreen) [14]: 1600 nM
- partial agonist, % receptor stimulation [14]: 80%

B2: hAGRP(86-132) (ligand, human, UniProt O00253 86-132, looked up)
chain: RCVRLHESCLGQQVPCCDPCATCYCRFFNAFCYCRKLGTAMNPCSRT
notes: range 86-132; also called C-terminal domain of AGRP
- antagonist pA2 (Schild, agonist NDP-MSH) [9]: 8.8
- inverse agonist apparent potency (EC50) [9]: 2.4 nM
- inverse agonist, % decrease from basal signal [9]: -35%
- antagonist pA2 (Schild, agonist NDP-MSH) [15]: 8.7
- antagonist pA2 (Schild, agonist NDP-MSH) [10]: 8.7
- IC50 [16]: 12 nM

Binder: cyclo(PRFFDAF[dP]) [c[Pro-Arg-Phe-Phe-Asp-Ala-Phe-DPro]]
- agonist EC50 (cAMP AlphaScreen) [15]: > 100000 nM
- antagonist pA2 (Schild, agonist NDP-MSH) [15]: 6.79
- agonist EC50 (cAMP AlphaScreen) [10]: > 100000 nM
- antagonist pA2 (Schild, agonist NDP-MSH) [10]: < 5.5
- inverse agonist, % change from basal cAMP at 100 µM [11]: -25%
- agonist EC50 (cAMP AlphaScreen) [12]: > 100000 nM
- IC50 [16]: 1300 nM
- IC50 [17]: 3600 nM

Binder: cyclo(PRFFSAF[dP]) [c[Pro-Arg-Phe-Phe-Ser-Ala-Phe-DPro]]
- inverse agonist, % decrease from basal signal [9]: -25%
- agonist EC50 (cAMP AlphaScreen) [15]: > 100000 nM
- antagonist pA2 (Schild, agonist NDP-MSH) [15]: 7.7
- agonist EC50 (cAMP AlphaScreen) [10]: > 100000 nM
- antagonist pA2 (Schild, agonist NDP-MSH) [10]: 5.9
- inverse agonist apparent potency [11]: 140 nM
- inverse agonist, % decrease from basal cAMP [11]: -25%
- agonist EC50 (cAMP AlphaScreen) [12]: > 100000 nM

Binder: cyclo(PRFFNAS[dP]) [c[Pro-Arg-Phe-Phe-Asn-Ala-Ser-DPro]]
- inverse agonist, % change from basal cAMP at 100 µM [1]: -55%
- % activation at 100 µM (cAMP AlphaScreen) [2]: 35%

Binder: PRFFXAFP (head-to-tail cyclic; DArg at 2; DPhe at 3 and 4; Dap at 5; DPro at 8) [c[Pro-DArg-DPhe-DPhe-Dap-Ala-Phe-DPro]]
- agonist EC50 (cAMP AlphaScreen) [4]: > 100000 nM
- antagonist pA2 (Schild, agonist NDP-MSH) [4]: < 5.5
- inverse agonist, % change from basal cAMP at 100 µM [5]: -15%
- agonist EC50 (cAMP AlphaScreen) [6]: 2200 nM
- partial agonist efficacy, % of NDP-MSH [6]: 60%

Further lines, results first:

- inverse agonist, % change from basal cAMP at 100 µM [1]: -25%
- % activation at 100 µM (cAMP AlphaScreen) [2]: 60%
Binder: cyclo(PRFFNAG[dP]) [c[Pro-Arg-Phe-Phe-Asn-Ala-Gly-DPro]]

- % maximal NDP-MSH response at 100 µM (cAMP AlphaScreen) [3]: 25%
- % maximal NDP-MSH response at 100 µM (cAMP AlphaScreen) [4]: 25%
- antagonist pA2 (Schild, agonist NDP-MSH) [4]: 5.7
- agonist EC50 (cAMP AlphaScreen) [5]: > 100000 nM
- % maximal NDP-MSH response at 100 µM (cAMP AlphaScreen) [6]: 25%
Binder: PRFFXAFP (head-to-tail cyclic; DArg at 2; Dap at 5; DPro at 8) [c[Pro-DArg-Phe-Phe-Dap-Ala-Phe-DPro]]

- agonist EC50 (cAMP AlphaScreen) [4]: > 100000 nM
- antagonist pA2 (Schild, agonist NDP-MSH) [4]: 5.7
- agonist EC50 (cAMP AlphaScreen) [5]: > 100000 nM
- agonist EC50 (cAMP AlphaScreen) [6]: 700 nM
Binder: PRFFXAFP (head-to-tail cyclic; DPhe at 3 and 4; Dap at 5; DPro at 8) [c[Pro-Arg-DPhe-DPhe-Dap-Ala-Phe-DPro]]

- agonist EC50 (cAMP AlphaScreen) [4]: > 100000 nM
- antagonist pA2 (Schild, agonist NDP-MSH) [4]: 6
- inverse agonist, % change from basal cAMP at 100 µM [5]: -30%
- agonist EC50 (cAMP AlphaScreen) [6]: 800 nM
- partial agonist efficacy, % of NDP-MSH [6]: 70%
Binder: PRFFXAFP (head-to-tail cyclic; DArg at 2; DPhe at 3; Dap at 5; DPro at 8) [c[Pro-DArg-DPhe-Phe-Dap-Ala-Phe-DPro]]

- inverse agonist, % decrease from basal signal [9]: -30%
- % maximal NDP-MSH response at 100 µM (cAMP AlphaScreen) [12]: 25%
- agonist EC50 (cAMP AlphaScreen) [14]: 2800 nM
- partial agonist, % receptor stimulation [14]: 80%
Binder: cyclo(PRFFNAF[dP]) (also: assayed as TFA salt) [c[Pro-Arg-Phe-Phe-Asn-Ala-Phe-DPro]]

- agonist EC50 (cAMP AlphaScreen) [15]: > 100000 nM
- antagonist pA2 (Schild, agonist NDP-MSH) [15]: 7
- agonist EC50 (cAMP AlphaScreen) [10]: > 100000 nM
- antagonist pA2 (Schild, agonist NDP-MSH) [10]: < 5.5
- inverse agonist apparent potency [11]: 700 nM
- inverse agonist, % decrease from basal cAMP [11]: -10%
- agonist EC50 (cAMP AlphaScreen) [12]: 20500 nM
- IC50 [16]: 1400 nM
- IC50 [17]: 2500 nM
Binder: cyclo(PRFFEAF[dP]) [c[Pro-Arg-Phe-Phe-Glu-Ala-Phe-DPro]]
